Results: the supplement of paper PMC9112550, “Optimization of the antimicrobial peptide Bac7 by deep mutational scanning” (BMC Biology, 2022)

Tested on: Escherichia coli TOP10
Experiment: shrunken log2 fold change of peptide-encoding DNA abundance (4.5 h post-induction vs induction); higher = less antimicrobial activity (less host growth inhibition)
Conditions: time post-induction: 4.5 h; library: site-saturation at positions 5, 18, 19, 20
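Further: peptides expressed intracellularly from a pBAD plasmid library in pooled LB shake-flask culture, induced with 0.3% L-arabinose, DNA abundance read by NGS, three biological replicates, DESeq2 with apeglm shrinkage.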

Sequence	shrunken log2 fold change
RRIRTRPPRLPRPRPRPHPEPRP	-0.0834
RRIRTRPPRLPRPRPRPHQMPRP	0.0521
RRIRTRPPRLPRPRPRPHQQPRP	-0.0314
RRIRTRPPRLPRPRPRPHRCPRP	-0.0268
RRIRTRPPRLPRPRPRPHRDPRP	0.129
RRIRTRPPRLPRPRPRPHTQPRP	-0.0664
RRIRTRPPRLPRPRPRPHYAPRP	-0.11
RRIRTRPPRLPRPRPRPHYCPRP	-0.418
RRIRTRPPRLPRPRPRPHYGPRP	-0.0891
RRIRTRPPRLPRPRPRPIFLPRP	-0.145
RRIRTRPPRLPRPRPRPIHDPRP	-0.0511
RRIRTRPPRLPRPRPRPIIHPRP	-0.937
RRIRTRPPRLPRPRPRPILPPRP	-0.066
RRIRTRPPRLPRPRPRPIMHPRP	-0.176
RRIRTRPPRLPRPRPRPIMLPRP	-0.32
RRIRTRPPRLPRPRPRPINDPRP	-0.293
RRIRTRPPRLPRPRPRPINHPRP	-0.718
RRIRTRPPRLPRPRPRPINVPRP	-0.509
RRIRTRPPRLPRPRPRPIPVPRP	-0.412
RRIRTRPPRLPRPRPRPISFPRP	-0.199
RRIRTRPPRLPRPRPRPISHPRP	-0.328
RRIRTRPPRLPRPRPRPISSPRP	-0.0114
RRIRTRPPRLPRPRPRPITQPRP	-0.168
RRIRTRPPRLPRPRPRPIWGPRP	-0.144
RRIRTRPPRLPRPRPRPIYNPRP	-0.254

Sequence	shrunken log2 fold change
RRIRTRPPRLPRPRPRPKAFPRP	-0.149
RRIRTRPPRLPRPRPRPKASPRP	-0.0647
RRIRTRPPRLPRPRPRPKFAPRP	0.232
RRIRTRPPRLPRPRPRPKGAPRP	0.351
RRIRTRPPRLPRPRPRPKGKPRP	0.34
RRIRTRPPRLPRPRPRPKIAPRP	-0.0425
RRIRTRPPRLPRPRPRPKKQPRP	-0.15
RRIRTRPPRLPRPRPRPKKYPRP	-0.627
RRIRTRPPRLPRPRPRPKQRPRP	0.166
RRIRTRPPRLPRPRPRPKRAPRP	0.273
RRIRTRPPRLPRPRPRPKRHPRP	0.222
RRIRTRPPRLPRPRPRPKRQPRP	0.562
RRIRTRPPRLPRPRPRPKSSPRP	-0.0371
RRIRTRPPRLPRPRPRPKTIPRP	-0.292
RRIRTRPPRLPRPRPRPKTQPRP	0.19
RRIRTRPPRLPRPRPRPKVDPRP	0.195
RRIRTRPPRLPRPRPRPKVGPRP	0.2
RRIRTRPPRLPRPRPRPKVSPRP	-0.0491
RRIRTRPPRLPRPRPRPKWSPRP	-0.227
RRIRTRPPRLPRPRPRPKYGPRP	-0.0738
RRIRTRPPRLPRPRPRPLAFPRP	2.19
RRIRTRPPRLPRPRPRPLAKPRP	0.0419
RRIRTRPPRLPRPRPRPLCIPRP	-0.693
RRIRTRPPRLPRPRPRPLEEPRP	-0.0207
RRIRTRPPRLPRPRPRPLEFPRP	-0.0903

Sequence	shrunken log2 fold change
RRIRTRPPRLPRPRPRPLGAPRP	0.0945
RRIRTRPPRLPRPRPRPLHRPRP	-0.287
RRIRTRPPRLPRPRPRPLINPRP	-0.692
RRIRTRPPRLPRPRPRPLKQPRP	0.0283
RRIRTRPPRLPRPRPRPLLWPRP	0.223
RRIRTRPPRLPRPRPRPLNSPRP	-0.347
RRIRTRPPRLPRPRPRPLPFPRP	-0.518
RRIRTRPPRLPRPRPRPLPKPRP	-0.0549
RRIRTRPPRLPRPRPRPLQIPRP	4.62
RRIRTRPPRLPRPRPRPLQSPRP	-0.00232
RRIRTRPPRLPRPRPRPLQVPRP	-0.219
RRIRTRPPRLPRPRPRPLRCPRP	0.108
RRIRTRPPRLPRPRPRPLRKPRP	0.258
RRIRTRPPRLPRPRPRPLRVPRP	0.767
RRIRTRPPRLPRPRPRPLSDPRP	-0.029
RRIRTRPPRLPRPRPRPLVWPRP	0.44
RRIRTRPPRLPRPRPRPLVYPRP	-0.917
RRIRTRPPRLPRPRPRPLWHPRP	-0.221
RRIRTRPPRLPRPRPRPLWLPRP	0.165
RRIRTRPPRLPRPRPRPLWMPRP	-0.119
RRIRTRPPRLPRPRPRPLWNPRP	-0.44
RRIRTRPPRLPRPRPRPLWSPRP	0.0357
RRIRTRPPRLPRPRPRPLYKPRP	-0.274
RRIRTRPPRLPRPRPRPMANPRP	-0.102
RRIRTRPPRLPRPRPRPMDKPRP	-0.528

Sequence	shrunken log2 fold change
RRIRTRPPRLPRPRPRPMEPPRP	0.045
RRIRTRPPRLPRPRPRPMFFPRP	-0.204
RRIRTRPPRLPRPRPRPMFMPRP	0.000513
RRIRTRPPRLPRPRPRPMGDPRP	-0.0264
RRIRTRPPRLPRPRPRPMGNPRP	-0.0115
RRIRTRPPRLPRPRPRPMHDPRP	-0.00302
RRIRTRPPRLPRPRPRPMHEPRP	-0.0192
RRIRTRPPRLPRPRPRPMILPRP	-0.0648
RRIRTRPPRLPRPRPRPMIQPRP	-0.146
RRIRTRPPRLPRPRPRPMKQPRP	-0.0631
RRIRTRPPRLPRPRPRPMLRPRP	0.0141
RRIRTRPPRLPRPRPRPMLYPRP	-0.131
RRIRTRPPRLPRPRPRPMMPPRP	-0.0027
RRIRTRPPRLPRPRPRPMMWPRP	0.00735
RRIRTRPPRLPRPRPRPMPMPRP	0.467
RRIRTRPPRLPRPRPRPMPSPRP	-0.128
RRIRTRPPRLPRPRPRPMQEPRP	-0.0701
RRIRTRPPRLPRPRPRPMQMPRP	0.39
RRIRTRPPRLPRPRPRPMRHPRP	0.00372
RRIRTRPPRLPRPRPRPMTHPRP	-0.633
RRIRTRPPRLPRPRPRPMVFPRP	0.0283
RRIRTRPPRLPRPRPRPMVSPRP	-0.0669
RRIRTRPPRLPRPRPRPMWHPRP	-0.391
RRIRTRPPRLPRPRPRPMYDPRP	-0.161
RRIRTRPPRLPRPRPRPMYFPRP	-0.53

Sequence	shrunken log2 fold change
RRIRTRPPRLPRPRPRPMYHPRP	-0.0615
RRIRTRPPRLPRPRPRPNAMPRP	0.0879
RRIRTRPPRLPRPRPRPNCAPRP	-0.254
RRIRTRPPRLPRPRPRPNDPPRP	-0.149
RRIRTRPPRLPRPRPRPNDSPRP	-0.00242
RRIRTRPPRLPRPRPRPNDTPRP	-0.387
RRIRTRPPRLPRPRPRPNEAPRP	0.172
RRIRTRPPRLPRPRPRPNEFPRP	0.0177
RRIRTRPPRLPRPRPRPNFYPRP	-0.186
RRIRTRPPRLPRPRPRPNGPPRP	-0.277
RRIRTRPPRLPRPRPRPNHEPRP	-0.143
RRIRTRPPRLPRPRPRPNIMPRP	-0.526
RRIRTRPPRLPRPRPRPNIVPRP	-0.192
RRIRTRPPRLPRPRPRPNLEPRP	-0.0562
RRIRTRPPRLPRPRPRPNMCPRP	0.00985
RRIRTRPPRLPRPRPRPNMGPRP	-0.0939
RRIRTRPPRLPRPRPRPNMPPRP	-0.0405
RRIRTRPPRLPRPRPRPNNPPRP	-0.684
RRIRTRPPRLPRPRPRPNQRPRP	0.181
RRIRTRPPRLPRPRPRPNQWPRP	-0.0389
RRIRTRPPRLPRPRPRPNSQPRP	-0.00223
RRIRTRPPRLPRPRPRPNTIPRP	-0.596
RRIRTRPPRLPRPRPRPNVAPRP	0.174
RRIRTRPPRLPRPRPRPNYIPRP	-0.74
RRIRTRPPRLPRPRPRPPAMPRP	0.294

Sequence	shrunken log2 fold change
RRIRTRPPRLPRPRPRPPDFPRP	0.0547
RRIRTRPPRLPRPRPRPPEKPRP	0.0774
RRIRTRPPRLPRPRPRPPELPRP	0.194
RRIRTRPPRLPRPRPRPPGEPRP	0.318
RRIRTRPPRLPRPRPRPPKDPRP	-0.187
RRIRTRPPRLPRPRPRPPMCPRP	0.0176
RRIRTRPPRLPRPRPRPPMPPRP	0.144
RRIRTRPPRLPRPRPRPPMSPRP	-0.0702
RRIRTRPPRLPRPRPRPPMVPRP	0.152
RRIRTRPPRLPRPRPRPPNKPRP	-0.275
RRIRTRPPRLPRPRPRPPNNPRP	-0.377
RRIRTRPPRLPRPRPRPPNVPRP	-0.201
RRIRTRPPRLPRPRPRPPPHPRP	0.907
RRIRTRPPRLPRPRPRPPVDPRP	0.244
RRIRTRPPRLPRPRPRPPYFPRP	0.202
RRIRTRPPRLPRPRPRPPYWPRP	0.0831
RRIRTRPPRLPRPRPRPQDEPRP	-0.152
RRIRTRPPRLPRPRPRPQDFPRP	-0.29
RRIRTRPPRLPRPRPRPQFLPRP	-0.352
RRIRTRPPRLPRPRPRPQGPPRP	0.0175
RRIRTRPPRLPRPRPRPQGRPRP	-0.0678
RRIRTRPPRLPRPRPRPQIHPRP	-0.15
RRIRTRPPRLPRPRPRPQLIPRP	-0.222
RRIRTRPPRLPRPRPRPQMRPRP	0.472
RRIRTRPPRLPRPRPRPQNAPRP	-0.12
